From PMC4236683 (2014)

Experiments:
[1] = target: T1, PlexinA2 (Mus musculus, UniProt P70207); assay: saturation binding
T1 chain: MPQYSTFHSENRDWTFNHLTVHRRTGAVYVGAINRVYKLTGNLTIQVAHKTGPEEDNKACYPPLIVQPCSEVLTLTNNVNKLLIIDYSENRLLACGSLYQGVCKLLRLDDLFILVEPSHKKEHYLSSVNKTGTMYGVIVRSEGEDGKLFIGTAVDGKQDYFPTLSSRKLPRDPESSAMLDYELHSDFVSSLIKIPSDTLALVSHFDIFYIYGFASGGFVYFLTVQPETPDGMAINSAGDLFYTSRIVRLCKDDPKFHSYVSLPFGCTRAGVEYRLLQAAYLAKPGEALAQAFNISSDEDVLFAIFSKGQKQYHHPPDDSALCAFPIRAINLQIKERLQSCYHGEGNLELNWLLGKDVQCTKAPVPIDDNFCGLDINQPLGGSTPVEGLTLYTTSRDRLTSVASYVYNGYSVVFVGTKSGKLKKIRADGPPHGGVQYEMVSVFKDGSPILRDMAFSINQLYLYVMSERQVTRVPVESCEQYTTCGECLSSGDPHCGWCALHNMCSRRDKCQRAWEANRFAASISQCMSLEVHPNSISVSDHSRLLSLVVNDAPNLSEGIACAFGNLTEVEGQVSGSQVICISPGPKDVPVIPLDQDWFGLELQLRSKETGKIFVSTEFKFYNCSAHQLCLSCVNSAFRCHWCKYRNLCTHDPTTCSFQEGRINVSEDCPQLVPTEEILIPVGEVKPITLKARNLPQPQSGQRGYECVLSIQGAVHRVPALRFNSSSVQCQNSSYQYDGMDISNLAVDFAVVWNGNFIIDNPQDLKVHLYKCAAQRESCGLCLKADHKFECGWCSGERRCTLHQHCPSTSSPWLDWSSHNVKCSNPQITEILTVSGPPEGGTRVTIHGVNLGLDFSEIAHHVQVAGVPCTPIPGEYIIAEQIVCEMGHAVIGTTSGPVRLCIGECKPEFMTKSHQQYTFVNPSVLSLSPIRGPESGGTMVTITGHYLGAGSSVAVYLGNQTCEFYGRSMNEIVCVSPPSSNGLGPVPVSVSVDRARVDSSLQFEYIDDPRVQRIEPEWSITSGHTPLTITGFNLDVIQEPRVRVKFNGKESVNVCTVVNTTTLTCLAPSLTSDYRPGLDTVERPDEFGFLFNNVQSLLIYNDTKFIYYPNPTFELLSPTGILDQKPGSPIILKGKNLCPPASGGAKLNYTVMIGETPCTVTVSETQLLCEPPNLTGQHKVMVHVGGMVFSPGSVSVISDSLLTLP

[2] = target: PlexinA1 (Mus musculus, UniProt P70206); assay: saturation binding
Sequence of PlexinA1 (P70206 28-1242): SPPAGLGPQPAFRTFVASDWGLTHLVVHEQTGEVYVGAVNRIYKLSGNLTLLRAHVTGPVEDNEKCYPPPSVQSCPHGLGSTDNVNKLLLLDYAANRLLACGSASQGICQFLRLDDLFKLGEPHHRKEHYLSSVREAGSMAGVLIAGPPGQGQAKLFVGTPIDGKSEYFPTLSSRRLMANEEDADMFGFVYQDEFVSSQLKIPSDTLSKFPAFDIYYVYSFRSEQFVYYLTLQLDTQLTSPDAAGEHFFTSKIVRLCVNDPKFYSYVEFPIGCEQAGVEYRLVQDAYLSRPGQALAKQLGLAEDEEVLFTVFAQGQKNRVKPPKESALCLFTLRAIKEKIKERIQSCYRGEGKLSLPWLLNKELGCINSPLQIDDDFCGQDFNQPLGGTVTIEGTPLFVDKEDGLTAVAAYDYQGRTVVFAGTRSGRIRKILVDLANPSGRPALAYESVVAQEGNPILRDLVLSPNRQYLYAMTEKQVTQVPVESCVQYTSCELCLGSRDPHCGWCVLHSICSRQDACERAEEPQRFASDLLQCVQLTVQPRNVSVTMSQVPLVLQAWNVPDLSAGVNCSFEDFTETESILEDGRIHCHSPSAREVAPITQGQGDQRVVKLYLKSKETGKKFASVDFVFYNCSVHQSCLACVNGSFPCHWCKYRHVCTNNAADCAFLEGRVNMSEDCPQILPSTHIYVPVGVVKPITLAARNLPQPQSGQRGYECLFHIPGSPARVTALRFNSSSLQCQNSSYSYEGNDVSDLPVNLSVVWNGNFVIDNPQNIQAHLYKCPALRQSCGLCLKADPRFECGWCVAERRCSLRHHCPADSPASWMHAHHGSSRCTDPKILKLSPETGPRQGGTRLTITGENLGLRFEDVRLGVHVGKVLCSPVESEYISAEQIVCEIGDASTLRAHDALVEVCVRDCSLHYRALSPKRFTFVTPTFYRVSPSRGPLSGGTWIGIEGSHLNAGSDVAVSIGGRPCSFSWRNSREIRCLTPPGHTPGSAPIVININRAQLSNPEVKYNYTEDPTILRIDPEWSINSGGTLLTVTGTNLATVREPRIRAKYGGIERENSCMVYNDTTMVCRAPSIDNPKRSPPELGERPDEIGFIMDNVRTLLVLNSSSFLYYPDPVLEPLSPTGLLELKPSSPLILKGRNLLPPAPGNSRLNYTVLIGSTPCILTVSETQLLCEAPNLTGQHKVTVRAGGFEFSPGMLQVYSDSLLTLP

B1: Sema5A-Fc (protein)
chain: PETQDPAKCQRAEHPVVSYKEIGPWLREFRAENAVDFSRLTFDPGQKELVVGARNYLFRLELEDLSLIQAVEWECDEATKKACYSKGKSKEECQNYIRVLLVGGDRLFTCGTNAFTPVCTIRSLSNLTEIHDQISGMARCPYSPQHNSTALLTASGELYAATAMDFPGRDPAIYRSLGTLPPLRTAQYNSKWLNEPNFVSSYDIGNFTYFFFRENAVEHDCGKTVFSRPARVCKNDIGGRFLLEDTWTTFMKARLNCSRPGEVPFYYNELQGTFFLPELDLIYGIFTTNVNSIASSAVCVFNLSAISQAFNGPFKYQENSRSAWLPYPNPNPNFQCGTMDQGLYVNLTERNLQDAQKFILMHEVVQPVTTVPSFMEDNSRFSHLAVDVVQGRETLVHIIYLGTDYGTIKKVRAPLSQSSGSCLLEEIELFPERRSEPIRSLQILHSQSVLFVGLQEHVAKIPLKRCHFHQTRSACIGAQDPYCGWDAVMKKCTSLEESLSMTQWDQSIPTCPTRNLTVDGSFGPWSPWTPCTHTDGTAVGSCLCRSRSCDRPAPQCGGWQCEGPRMEITNCSRNGGWTPWTSWSPCSTTCGIGFQVRQRSCSNPTPRHGGRVCVGQNREERYCNEHLLCPPHVFWTGWGPWERCTAQCGGGIQARRRTCENGPDCAGSNVEYHPCNTNACPELKKTTPWTPWTPVNISDNGGHYEQRFRYTCKARLPDPNLLEVGRQRIEMRYCSSDGTSGCSTDGLSGDFLRAGRYSAHTVNGAWSAWTSWSQCSRDCSRGIRNRKRVCNNPEPKFGGMPCLGPSLEFQECNILPCPVDGVWSCWSSWSKCSATCGGGHYMRTRSCSNPAPAYGGDICLGLHTEEALCNTQTCPESWSEWSDWSVCDASGTQVRARQCILLFPVGSQCSGNTTESRPCVFDSNFIPEVSVARSSSVEEKRCGEFNMFHM
Work on B1 yielded a Kd [1] of roughly 11.5 nM and a Kd [2] of roughly 11.5 nM.
